The results in this text go back to patent US20180282397A1 (UNIVERSITY OF SOUTHERN CALIFORNIA, published 2018).

Substitutions are numbered along the chain they refer to. Numbers in names are those of the source.

For assay [1], the target named is T1, K-Ras(G12V, Y32R) (human, UniProt P01116-2 1-185, limits assumed, biotinylated (pDW363 vector, BirA)).
T1 construct: Made by site-directed mutagenesis of pDW363 K-Ras(G12V); also called Y32R Switch I mutant; Y32R mutation
Description: radioactive in vitro pull-down of [35S]Met-labelled RasIn2 on bead-immobilised target [d].

Assay [2] has as its target T2, H-Ras(G12V)-GTP (Homo sapiens (Human), UniProt P01112 1-166).
T2 construct: also called H-Ras(G12V)-GppNHp; active H-Ras(G12V); not shown: avitag and His tag at the 5' (N-terminal) end
Description: radioactive in vitro pull-down on Ras-GTP beads (FIG. 6b).

Assay [3] addresses T3, Arf1-GTP (UniProt P84077 18-179, biotinylated (pDW363 vector, BirA)).
T3 construct: range 18-179
Description: radioactive in vitro pull-down of [35S]Met-labelled RasIn2 on bead-immobilised target [c].

Assay [4] has as its target T4, Rap1B(G12V)-GTP (Pan troglodytes (Chimpanzee), UniProt A5A6J7 1-166, biotinylated (pDW363 vector, BirA)).
T4 construct: also called Rap1B-GTP
T4 chain: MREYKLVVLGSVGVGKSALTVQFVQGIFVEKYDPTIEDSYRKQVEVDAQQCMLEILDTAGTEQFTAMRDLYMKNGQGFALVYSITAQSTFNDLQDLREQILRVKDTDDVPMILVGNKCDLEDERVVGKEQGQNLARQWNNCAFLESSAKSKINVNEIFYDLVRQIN
The description is as above.

Assay [5] has as its target T1, K-Ras(G12V, Y32R). Description: radioactive in vitro pull-down of [35S]Met-labelled RasIn1 on bead-immobilised target [b].
For assay [6], the target named is T5, K-Ras(G12V)-GTP (human, UniProt P79800 1-166 (Meleagris gallopavo entry), biotinylated in vivo on the avitag (BirA)).
T5 construct: Active state: immobilised on neutravidin/streptavidin beads and exchanged with GTP or GTPγS; Same protein as m18, other nucleotide; also called K-Ras(G12V)-GTPγS; K-Ras(GTPγS); not shown: avitag and His tag at the 5' (N-terminal) end
Put plainly: radioactive pull-down of RasIn1 on Ras-GTP beads; competitor Raf-RBD in molar excess.

For assay [7], the target named is T2, H-Ras(G12V)-GTP. Put plainly: ELISA, biotin-labeled H-Ras(G12V)-GppNHp on streptavidin plate, anti-FLAG detection, OD450. For orientation: An ELISA detects its analyte on a solid surface through an enzyme-linked reagent.
Assay [8] addresses T2, H-Ras(G12V)-GTP. Put plainly: SPR, Biacore T100, biotinylated H-Ras(G12V)-GppNHp on streptavidin chip, MBP-intrabody fusion injected, 25 C. (Surface plasmon resonance follows binding to a sensor surface in real time, without labels.)
Assay [9] deals with T2, H-Ras(G12V)-GTP. Description: SPR, KD of RasIn2 against KD of the parent clone RasIn1.
The target in assay [10] is T5, K-Ras(G12V)-GTP. Put plainly: radioactive in vitro pull-down of [35S]-labelled RasIn1 and point mutants on immobilised K-Ras-GTP [a].
In assay [11] the target is T2, H-Ras(G12V)-GTP. Put plainly: SPR (Biacore T100), H-Ras(G12V) on a streptavidin chip exchanged with GppNHp, maltose binding protein-intrabody fusion injected [e].

B1: RasIn2 (designed binder)
chain: MLEVKEASPTSIQISWSIVFGKHDRYYRITYGETGGNSPVQEFTVPGSKSAATISGLKPGVDYTITVYAVTFRWPKRRLVRPISINYRT
notes: also called Clone 3; radiolabeled RasIn2
In the case of B1, the binding result in assay [1], in assay [3] and in [4] was “no binding” throughout. The “% binding (pull-down)” value in [2] is > 70%.

B2: RasIn1 (designed binder)
chain: B1 chain with S17G, I18P, G21S, K22A, H23Y, D24S, K76M, R77P
notes: also called radiolabeled RasIn1; parental RasIn1 clone
Take B2: the binding result in assay [5] was “no binding”. Further, the “fold decrease of binding with Raf-RBD” value in [6] worked out at 12 fold.

B3: FLAG-tagged RasIn2 (designed binder, not shown: large carriers)
chain: B1 chain
notes: also called RasIn2 protein
Regarding B3, the “fold ELISA signal versus Raf-RBD” value in [7] is ~10 fold.

B4: RasIn2 maltose binding protein fusion (designed binder, not shown: large carriers)
chain: B1 chain
The term Kd denotes the free concentration of one partner at which half of the binding sites on the other are occupied at equilibrium, for simple one-to-one binding. Regarding B4, the Kd in [8] is 0.12 µM. Besides, the “fold increase in affinity versus RasIn1” value in [9] is ~20 fold.

B5: Clone 2 (designed binder)
chain: B1 chain with S17E, I18Y, K22R, V80L, R81W
notes: also called Clone 2 of maturation pool 5
With B5, the “% binding (pull-down)” value in [2] is > 70%.

B6: RasIn1 R72A (designed binder)
chain: B1 chain with S17G, I18P, G21S, K22A, H23Y, D24S, R73A, K76M, R77P
modifications: [35S]Met radiolabel from in vitro translation; letters unchanged
notes: FG loop mutant
In the case of B6, the binding result in assay [10] was “no binding”.

B7: Clone 4 (designed binder)
chain: B1 chain with S17G, I18S, G21R, K22A, H23D, D24S, K76R, R77P, V80L, R81W
notes: also called clone 4 of maturation pool 5
Turning to B7, in assay [2], the “% binding (pull-down)” value was > 70%.

B8: Clone 1 (designed binder)
chain: B1 chain with S17G, I18R, G21S, K22L, H23D, D24S, K76N, R77P
notes: also called Clone 1 of maturation pool 5
Take B8: in assay [2], the “% binding (pull-down)” value is > 70%.

B9: RasIn1 maltose binding protein fusion (designed binder, not shown: large carriers)
chain: B1 chain with S17G, I18P, G21S, K22A, H23Y, D24S, K76M, R77P
On to B9, for which the Kd in [8] is 2.1 µM; in assay [11] it was 2 µM.

B10: RasIn1 S24R (designed binder)
chain: B1 chain with S17G, I18P, G21S, K22A, H23Y, D24R, K76M, R77P
modifications: [35S]Met radiolabel from in vitro translation; letters unchanged
notes: Radiolabeled point mutant of RasIn1, BC loop
Regarding B10, in assay [10], the binding result is recorded as “no binding”.

B11: RasIn1 R77A (designed binder)
chain: B1 chain with S17G, I18P, G21S, K22A, H23Y, D24S, K76M, R77P, R78A
modifications: [35S]Met radiolabel from in vitro translation; letters unchanged
notes: FG loop mutant
Take B11: the binding result in [10] is “no binding”.
